In data set [1] the test system is Rho-His6 (transcription termination factor Rho) (Acinetobacter baumannii AB5075). Nature of the data set: EMSA. The following applies: LightShift chemiluminescent RNA EMSA kit components, 20 uL, 1 h at room temperature; 5% acrylamide TBE gel, 0.5x TBE, 100 V 120 min at 4 C; salt and pH not …. Background: Mobility shift assays separate free from complexed probe on a gel.

Data set [2] addresses T1, Rho-His6 (transcription termination factor Rho) (Acinetobacter baumannii AB5075) (UniProt A0ABX6CC36). The data set is described as follows: EMSA.
Data set [3] concerns the target T1, Rho-His6 (transcription termination factor Rho) (Acinetobacter baumannii AB5075). Nature of the data set: competition.

One may read the Kd as the constant that tells how readily two partners part at equilibrium.

Turning to ABUW_1645 mRNA leader, the Kd in data set [1] amounted to 20 nM.

Turning to “GGGCUUUGCCUGCUAGCCACAUUGCUAGCGGGUUUUAGCAGACCCUAUUUAAACAAAGACGAUAGACAGAACCUAGUUUUGUGUGUCGUGAACUCGUUCGCCCCCUUUUUCUCUAUGGUAGGGCGGAAGGGGGACACCUUCGGGUGUGCUGGUUUCUUUGUUUUCCAGUCUGCUAACCCUCUUUCGUCCUGCCAGUACUGAUC [ABUW_1645 mRNA leader]”, the dissociation constant (Kd) in data set [2] was 20 nM.

Regarding ABUW_1959 mRNA leader, the dissociation constant Kd in data set [1] amounted to 29 nM.

For the substance “GGGCUUUGCCUGCUAGCCACAUUGCUAGCGGGUUUUAGCAGACCCUAUUUAAACAAAGACGAUAGACAGAACCUAGUUUUGUGUGUCGUGAACUCGUUCGCCCCCUUUUUCUCUAUGGUAGGGCGGAAGGGGGACACCUUCGGGUGUGCUGGUUUCUUUGUUUUCCAGUCUGCUAACCCUCUUUCGUCCUGCCAGUACUGAUC [ABUW_1645 mRNA leader, unlabeled competitor]”, in data set [3], the binding entry was “binds”.

(Values after article PMC10790780.)
